Assay: soluble on expression in E. coli; label from the status in PepcDB or PDB records
In the case of “MQNVLIVGVGFMGGSFAKSLRRSGFKGKIYGYDINPESISKAVDLGIIDEGTTSIAKVEDFSPDFVMLSSPVRTFREIAKKLSYILSEDATVTDQGSVKGKLVYDLENILGKRFVGGHPIAGTEKSGVEYSLDNLYEGKKVILTPTKKTDKKRLKLVKRVWEDVGGVVEYMSPELHDYVFGVVSHLPHAVAFALVDTLIHMSTPEVDLFKYPGGGFKDFTRIAKSDPIMWRDIFLENKENVMKAIEGFEKSLNHLKELIVREAEEELVEYLKEVKIKRMEI”, the “soluble on expression in E. coli” value is reported as “soluble”.
For “MSLILCCGEALIDMLPRQTTLGEAGFAPYAGGAVFNTAIALGRLGVPSAFFTGLSDDMMGDILRETLRASKVDFSYCATLSRPTTIAFVKLVDGHATYAFYDENTAGRMITEAELPALGADCEALHFGAISLIPEPCGSTYEALMTREHETRVISLDPNIRPGFIQNKQSHMARIRRMAAMSDIVKFSDEDLAWFGLEGDEDTLARHWLHHGAKLVVVTRGAKGAVGYSANLKVEVASERVEVVDTVGAGDTFDAGILASLKMQGLLTKAQVASLSEEQIRKALALGAKAAAVTVSRAGANPPFAHEIGLEGHHHHHH”, the “soluble on expression in E. coli” value was “soluble”.
For “MVPLTEENVESVLDEIRPYLMSDGGNVALHEIDGNVVRVKLQGACGSCPSSTMTMKMGIERRLMEKIPEIVAVEALPDEETGLELNEENIEKVLEEIRPYLIGTADGSLDLVEIEDPIVKIRITGPAAGVMTVRVAVTQKLREKIPSIAAVQLI”, the “soluble on expression in E. coli” value was “soluble”.
With “MGSDKIHHHHHHMKLNTIDYLAPDSAERFVESLRETGFGVLSNHPIQKQLVEDIYKEWYNFFQSEQKHDFLFKSETHDGFFPASISETAKGNNVKDIKEYYHVYPWGRIPDSLRANILAYYEHANTLAAELLSWIEKYTPADVAEKYSIPLPDMIAQSQQTLLRILHYPPMKGDEEMGAIRAAAHEDINLITILPAANEPGLQVKTKTGEWIDVPSDFGSIIINIGDMLQEASGGYFPSTSHRVINPEGTDKTKSRISLPLFLHPNPEVVLSERYTADSYLQERLRELGVI” the “soluble on expression in E. coli” value was “not soluble”.
With “MAHHHHHHMLHCSREEVGELLIDSCKRSVGTSVELDTLLSNKNTSKVAPDATAATIMQVRMMYGKDDSGDLSYAEMTRLVEGLSSSKDLTERILKPFEDDNRHTIAFSEFAKVYSNAVSFKELGYVFQDLAGGQQTISRDTFASFVCDIQDEDWDAETLNEKLALMGCVGIDGITENNFVGYIMSPYFDFAMEKKLTGVYQDMDQIMCCYFISSSHNTYLTGDQLTSKSSAQMYKKGASRRVPVREAICRNGPHGEPIVCHGYTRTSCIAFEECVKMIRQYAFTASAYLVILSLGVHTSVEQQDKMAEILEEGLGSLLFWPPWGSNEKPTMAFSPNNLKNKILVKAKRGDFPAREPRVDKDDDATETDSMASTNNADYLKMKEARRKAGKDEVRVSAKLSAIVSIESSKYQGVKDLSYLKDKQPHHCSSYSERKGKAIVREAHNALVCINDTCLSRVFPAGSRIDSSNYRPLLYWVSGCQMVAINWQSSDTFGWRLNGCIFLDSGCCGYLLKPDYLRPVTCPDVAVPEYLRSLTVEVIWGFALPSAKQARGCRPVCDSFPRGP” the “soluble on expression in E. coli” value was “not soluble”.
In the case of “MAHHHHHHMSKAVQQIFEDYNRSRAQFTQSIYDMCLKAHHMEVIISTDIIMLLRPLILDKVPIVQQNATQILGKMASHSEEVALTILQNDVLPHLVYCLKHENKNYRKNCANTLRCLASHNAKLANLVAEEENCIDNLVDSLDEYDVRLKEACLNALCAIGKHDVDLSKQLMAKGIIPLVILSLQEKDTNLVRSSLNILTELSKHTNEIAKEVVDNNALPHLIKFLDHTDVQVKRYACNCLAQIAKHKEELTELIIESDVFPRVIYLLNDSDDVVKKNCANCLKEMSKHNEDICKIIARAGSLPFLCECIEQSSKGAVKLPAILCIGFIASFSESLSLNIILSNAIPILKKCLIGEEEDYIKASCVWAVGNIGKHSSSHAKKLSDENLLIILVNLYNANDSSDDLKKKVKLSFKGVIQKVTDLESLEPVFLKATAKLAKYCICQFAKIIPKSPAHKKAFIKSGCLKRLQVGRQSSCAIFPRCRVTVLPPYRPSAHPCTPSPLHRK”, the “soluble on expression in E. coli” value is reported as “not soluble”.
In the case of “MSEDNFDDEFDGSLPSGPRHPMARRFRGYLPVVVDVETGGFNSATDALLEIAATTVGMDEKGFLFPEHTYFFRIEPFEGANIEPAALEFTGIKLDHPLRMAVQEEAALTEIFRGIRKALKANGCKRAILVGHNSSFDLGFLNAAVARTGIKRNPFHPFSSFDTATLAGLAYGQTVLAKACQAAGMEFDNREAHSARYDTEKTAELFCGIVNRWKEMGGWMDDDD”, the “soluble on expression in E. coli” value is reported as “soluble”.
In the case of “MCLAIPGKVVEIKGNVGIVDFGGIRREVRLDLLSDVKVGDYVIVHTGFAIEKLDERRAREILEAWEEVFSVIGGE”, the “soluble on expression in E. coli” value is reported as “not soluble”.
With “MTILNHTLGFPRVGLRRELKKAQESYWAGNSTREELLAVGRELRARHWDQQKQAGIDLLPVGDFAWYDHVLTTSLLLGNVPARHQNKDGSVDIDTLFRIGRGRAPTGEPAAAAEMTKWFNTNYHYMVPEFVKGQQFKLTWTQLLDEVDEALALGHKVKPVLLGPITWLWLGKVKGEQFDRLSLLNDILPVYQQVLAELAKRGIEWVQIDEPALVLELPQAWLDAYKPAYDALQGQVKLLLTTYFEGVTPNLDTITALPVQGLHVDLVHGKDDVVELHKRLPSDWLLSAGLINGRNVWRADLTEKYVQIKDIVGKRDLWVASSCSLLHSPIDLSVETRLDAEVKSWFAFALQKCHELALLCDALNSGDTAALAEWSAPIQARRHSTRVHNPAVEKRLAAITAQDSQRANVYEVRAEAQRARFKLPAWPTTTIGSFPQTTEIRTLRLDFKKGNLDANNYRTGIAEHIRQAIVEQERLGLDVLVHGEAERNDMVEYFGEHLDGFVFTQNGWVQSYGSRCVKPPIVIGDVSRPAPITVEWAKYAQSMTDKPVKGMLTGPVTILCWSFPREDVSRETIAKQIALALRDEVADLEAAGIGIIQIDEPALREGLPLRRSDWDAYLQWGVEAFRINAAVAKDDTQIHTHMCYCEFNDIMDSIAALDADVITIETSRSDMELLESFEEFDYPNEIGPGVYDIHSPNVPSVEWIEALLKKAAKRIPAERLWVNPDCGLKTRGWPETRAALANMVQAAQNLRRG” the “soluble on expression in E. coli” value was “not soluble”.
For “GPGSMSGGSTALKLQRLLEAEGAVIHSALQVRALPSMGGGMGVVLTERLAAGAVLARFPFRSMITARKARFNLAMAEVALELLEGHVATASTNNGSEGDNGSAGPCAATDVLHVIPFASRVWSEYEFETRVRSRRLRQLIDAKVEELAGALDSTETIVCYVLLMAALYGRLSKHARLRRSGADDGAADEEASVSGTEACACGDEAGPAPTLHYTHENAWMRTWIHALPAQYDNLLELVPVPEDSPPCLAQHGTEPECAARAPSVLSGNATTASPPPPLLARVSAYTKSSGWLRSYISLCRFQASVAREQQAIQRRHAKCCAALRCLQRLPRGVEVTEELADAGHGAAAPQNRVFASCGSSPSSSQQDCGRHDHGAACTLGQFLWAFNTLMSRGFYFPEATWALMPFVDYFNYALESNGTMYPQEDDPEDPGCFTNLLLAKTSRNGIGSVAPLMAAAAPRKQQWRTALRTARVGKAAVPLANYQTYEFQLVRPTCPPSEQVMLHYGAYSDVELLMWYGFTLRPSLLPAPQLAAAPEGRKKGTIPVLPPCLSDADGSLLHAAHGLRLALSQLASATTRVAYYRRWVAPLHRCDGAAASDADAAAACKTWLAALHCAYRLPLSPIANAEGKYPEATPGATWLDELLSAFAQTPAVAAPCTDAASEDEAAYRIDAWMRRWGSERWPGFAASAFPNITKGCAFGVLGLSPVLRAAVHSSFWTPTPERSSLSAGERLLVVRGLAWAELYVNMTAAAHADGWTTSSVPASAAAAECARTMSVDQWTLLRFLALESTDAALEEYVEYVSESEG”, the “soluble on expression in E. coli” value was “not soluble”.
For “MGSDKIHHHHHHMRVLVKLSGEALSGEGGRGFDPERVNYIVNEIKSAIEEGFKIGIVVGAGNLFRGVELKNLTMTRADQIGLLGTVMNSVYLKDIFERSGLKARIYSQIVNLPDVERVNYDSIESALRENSILIFAGGTSNPFFTTDTAAVLRAQEMRAKLVVKATKVDGVYDKDPKKFPDAKKIPHLTFSEAMKMGLKVMDAEAFALCKKLGITVKVINFFEPGTLLKALKGEDVGSTVVPD”, the “soluble on expression in E. coli” value was “not soluble”.
For “MTKVQKRLFEVADKQYALFQAKLIPNIPQERVIGVRVPVLRKIAREFEKEPECRDFLNTLPHAYYDENMLHSILLSNVKNYEECIAAVEAFLPYVDNWAVCDTLRPKVFGKHKDKLLPRIKDWIASDKTYTCRFGIGMLMMHYLDKDFKPEYLELPQKVDSEEYYVKMMIAWFYATALANQWDATIPYIEEHRLSDWVHKKTIQKACESYRITDEQKAYLKTLR”, the “soluble on expression in E. coli” value was “not soluble”.
In the case of “MGHHHHHHSHMAQSINITELNLPQLEMLKNQLDQEVEFLSTSIAQLKVVQTKYVEAKDCLNVLNKSNEGKELLVPLTSSMYVPGKLHDVEHVLIDVGTGYYVEKTAEDAKDFFKRKIDFLTKQMEKIQPALQEKHAMKQAVMEMMSQKIQQLTALGAAQATAKA”, the “soluble on expression in E. coli” value is reported as “not soluble”.
With “MNNNTLSDDNLYNIENWGEGYFRINSKGNIEISKKPGKPGVELQTIVDAADRAGLHLPLLIRCSDILHDRVHRIYQAFTQAREDTCYAGNYQLVYPIKVNQEQSVVRELLKSPDNQIGLEAGSKPELMAVIGMLGDHQSTIVCNGYKDTSYIRTALIAQQMGHKVFIVIEKKSELDIILKESARLQIKPTLGVRIRLVSKSAGKWENTGGVKSKFGLNAKQVLELILQLKANDMLDCLQLMHCHLGSQIANIHDIRHCMQEVARYYIELRQLNAPIGTIDVGGGLSVDYEGTRSNKGCSMNYSLVEYATHIMLALKHLCQEAEISEPDLISESGRALTAHHAVLISNITDVEIINKAPVLPEISEDDSHVIRDIYDTYQAITDSSPTEIYNYAAHSLNEAHSLFKHGVISLQEKAKVEAFYTNICMEIKDKLDEENPSEKALLMRINECMAAKIFCNISFFQSIPDAWAIGQIFPVAPISQLNRTLSMHSILQDLTCDSDGTIKQYPGSSCVTTTLMLPSYDINNPYNIGFFLVGAYQEILGNLHNLFGDTNSLDVKLSDDGQFELDDLVSGDTVTNVLNLAHFDTKKLIQSYEKQLIKSELPKEKALSYLNELRSIFSQLTYLDGNIAQLEHHHHHH” the “soluble on expression in E. coli” value was “soluble”.
In the case of “IINGEDCSPHSQPWQAALVMENELFCSGVLVHPQWVLSAAHCFQNSYTIGLGLHSLEADQEPGSQMVEASLSVRHPEYNRPLLANDLMLIKLDESVSESDTIRSISIASQCPTAGNSCLVSGWGLLANGRMPTVLQCVNVSVVSEEVCSKLYDPLYHPSMFCAGGGQDQKDSCNGDSGGPLICNGYLQGLVSFGKAPCGQVGVPGVYTNLCKFTEWIEKTVQA”, the “soluble on expression in E. coli” value is reported as “soluble”.
With “MALDLTAYFDRINYRGATDPTLDVLQDLVTVHSRTIPFENLDPLLGVPVDDLSPQALADKLVLRRRGGYCFEHNGLMGYVLAELGYRVRRFAARVVWKLAPDAPLPPQTHTLLGVTFPGSGGCYLVDVGFGGQTPTSPLRLETGAVQPTTHEPYRLEDRVDGFVLQAMVRDTWQTLYEFTTQTRPQIDLKVASWYASTHPASKFVTGLTAAVITDDARWNLSGRDLAVHRAGGTEKIRLADAAAVVDTLSERFGINVADIGERGALETRIDELLARQPGADAP” the “soluble on expression in E. coli” value was “not soluble”.
With “SKLLENSSFEAINSQLTVETGDAHIIGRIESYSCKMAGDDKHMFKQFCQEGQPHVLEALSPPQTSGLSPSRLSKSQGGEEEGPLSDKCSRKTLFYLIATLNESFRPDYDFSTARSHEFSREPSLSWVVNAVNCSLFSAVREDFKDLKPQLWNAVDEEICLAECDIYSYNPDLDSDPFGEDGSLWSFNYFFYNKRLKRIVFFSCRSISGSTYTPSEAGNELDMELGEEEVEEESRSRGSGAEETSTMEEDRVPVICI” the “soluble on expression in E. coli” value was “soluble”.
With “MKISLGPLLYCWEKQQVIDFYQQVANSQIPLVYLGEAVCSRRRELKWGDYLELAKMLKSAGKDVVLSTLALIEAPSEYTELKRQVDNGEFMIEANDMAAVYLAKEHKQPFVCGASINNYNRASLDILQRLGMQRFVMPVELSKTWLSQVVDKKPSFEVEVLGHGYLPLAHSARCFTARHSQLAKDSCETVCRQYSKGLLAQTQEAQPLLRLNGIQTQSASCVDLRSEISAMVKIGVDVFRVSPSSLACIAKADALVEALNSGAMDAQYPLSDEHCNGYWFGEAGLKSLS” the “soluble on expression in E. coli” value was “soluble”.

— the DeepSol protein solubility set
